± gives the uncertainty stated by the source.
Assay: self-splicing fitness, log relative to wild type (ln ratio); higher = more splicing; Tetrahymena group I intron in knt gene, E. coli kanamycin selection, DiMSum; sequences stand for … in CUCUCU…GGAGGGAAAAGUUAUCAGGCAUGCACCUGGUAGCUAGUCUUUAAACCAAUAGAUUGCAUCGGUUUAAAAGGCAAGACCGUCAAAUUGCGGGAAAGGGGUCAACAGCCGUUCAGUACCAAGUCUCAGGGGAAACUUUGAGAUGGCCUUGCAAAGGGUAUGGUAAUAAGCUGACGGACAUGGUCCUAACCACGCAGCCAAGUCCUAAGUCAACAGAUCUUCUGUUGAUAUGGAUGCAGUUCACAGACUAAAUGUCGGUCGGGGAAGAUGUAUUCUUCUCAUAAGAUAUAGUCGGACCUCUCCUUAAUGGGAGCUAGCGGAUGAAGUGAUGCAACACUGGAGCCGCUGGGAACUAAUUUGUAUGCGAAAGUAUAUUGAUUAGUUUUGGAGUACUCGUGGUCG
Summary of the method: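 DiMSum derived fitness as the error-weighted combination of fold changes across replicates, kanamycin versus no kanamycin, normalised to wild type. E. coli BL21(DE3) held the library, which randomised all eight P1ex-region intron nucleotides within the knt kanamycin-resistance gene on pET-22b(+). Six replicate transformations grew overnight at 37°C or 30°C on LB agar with or without 25 μg/mL kanamycin, also containing 100 μg/mL carbenicillin, 50 μM IPTG and 0.2% rhamnose, and pooled colonies were amplicon-sequenced on an Illumina HiSeq 2500.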

Row | Sequence | self-splicing fitness (ln) (30 °C) | self-splicing fitness (ln) (37 °C)
1 | GGAUAGCAAUAUUACGGUUU | -1.22 ± 0.093 | -0.329 ± 0.11
2 | GGAUAGCAAUAUUACGUACC | -2.37 ± 0.26 | -0.601 ± 0.25
3 | GGAUAGCAAUAUUACGUAGG | -2.82 ± 0.19 | -1.52 ± 0.18
4 | GGAUAGCAAUAUUACGUAGU | -3.21 ± 0.15 | -1.67 ± 0.15
5 | GGAUAGCAAUAUUACGUCCG | -0.616 ± 0.17 | -0.972 ± 0.2
6 | GGAUAGCAAUAUUACGUCCU | -3.13 ± 0.19 | -1.84 ± 0.24
7 | GGAUAGCAAUAUUACGUCGC | -1.97 ± 0.17 | -1.42 ± 0.21
8 | GGAUAGCAAUAUUACGUCGU | -0.886 ± 0.1 | -0.841 ± 0.12
9 | GGAUAGCAAUAUUACGUCUC | -2.52 ± 0.25 | -2.16 ± 0.46
10 | GGAUAGCAAUAUUACGUCUG | -0.225 ± 0.061 | -0.0327 ± 0.088
11 | GGAUAGCAAUAUUACGUGGC | -2.56 ± 0.25 | 
12 | GGAUAGCAAUAUUACGUUAG |  | -2 ± 0.23
13 | GGAUAGCAAUAUUACGUUUC |  | -1.84 ± 0.41
14 | GGCAAGCAAUAUUACGAAUU | -0.859 ± 0.074 | 0.0425 ± 0.081
15 | GGCAAGCAAUAUUACGACUG | -1.02 ± 0.12 | -0.532 ± 0.17
16 | GGCAAGCAAUAUUACGAGAC | -0.681 ± 0.14 | -1.2 ± 0.23
17 | GGCAAGCAAUAUUACGAGGA | -3.3 ± 0.42 | -1.77 ± 0.24
18 | GGCAAGCAAUAUUACGAUGA | -1.07 ± 0.11 | -0.765 ± 0.13
19 | GGCAAGCAAUAUUACGAUGU | -2.19 ± 0.12 | -1.44 ± 0.13
20 | GGCAAGCAAUAUUACGCACG | -1 ± 0.13 | 0.171 ± 0.24

Row | Sequence | self-splicing fitness (ln) (30 °C) | self-splicing fitness (ln) (37 °C)
21 | GGCAAGCAAUAUUACGCCAA | -1.93 ± 0.24 | -1.36 ± 0.21
22 | GGCAAGCAAUAUUACGCGUC | -3.66 ± 0.34 | -2.74 ± 0.36
23 | GGCAAGCAAUAUUACGCGUG | -1.95 ± 0.088 | -2.11 ± 0.095
24 | GGCAAGCAAUAUUACGCUAU | -0.0842 ± 0.13 | -1.13 ± 0.11
25 | GGCAAGCAAUAUUACGGAGA | -2.37 ± 0.24 | -2.22 ± 0.27
26 | GGCAAGCAAUAUUACGGGCA | -0.0236 ± 0.092 | 0.138 ± 0.1
27 | GGCAAGCAAUAUUACGGGUU | -0.709 ± 0.077 | -0.607 ± 0.08
28 | GGCAAGCAAUAUUACGGUCC | -2.95 ± 0.15 | -2.1 ± 0.17
29 | GGCAAGCAAUAUUACGGUGU | -1.2 ± 0.059 | -0.54 ± 0.09
30 | GGCAAGCAAUAUUACGUAAU | 0.0253 ± 0.063 | 0.562 ± 0.074
31 | GGCAAGCAAUAUUACGUAGG | -1.09 ± 0.061 | -0.937 ± 0.088
32 | GGCAAGCAAUAUUACGUAUG | -2 ± 0.092 | -1.74 ± 0.1
33 | GGCAAGCAAUAUUACGUCAU | -1.32 ± 0.072 | -0.111 ± 0.083
34 | GGCAAGCAAUAUUACGUGGA | -1.28 ± 0.077 | -0.277 ± 0.073
35 | GGCAAGCAAUAUUACGUUAG | -3.77 ± 0.2 | -2.57 ± 0.19
36 | GGCCAGCAAUAUUACGAACU | -0.359 ± 0.07 | -0.12 ± 0.079
37 | GGCCAGCAAUAUUACGACCU | -1.96 ± 0.19 | -0.345 ± 0.22
38 | GGCCAGCAAUAUUACGACGC | -1.02 ± 0.15 | 0.369 ± 0.17
39 | GGCCAGCAAUAUUACGAGAC | -3.29 ± 0.25 | -2.77 ± 0.28

Source: the supplement of paper PMC7877785
